Results published in the supplement of paper PMC6757056.
± gives the standard deviation of the averaged measurements.

B1: library; a variant is named by its letters at N, in order (parent)
chain: GCUGUCACCGGUGUAUUACCCUAGUGGUCGACCGGUCUGAUGAGUCUNNNNNNAGACGAAACAGC

Legend:
hypoxanthine [1] = variants of: B1; test: normalized RNA/DNA level with ligand (relative to sTRSVctl = 100) (log10 (% of sTRSVctl)); ligand: hypoxanthine (xanthine aptamer); higher = less ribozyme self-cleavage, higher mRNA level; details: ligand concentration (+) RNA-Seq: 5 mM, HEK293T, reporter: mCherry (pCS4076), ligand present: yes
Summary of the method: (§1)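 Ribozyme switch library plasmids with mCherry reporters (eGFP in certain ligand experiments) went into HEK293T cells at 4 µg per 6-well well. Where ligand was used, it was applied 1 h before transfection, and total RNA was extracted with EDTA 72 h later for reverse transcription, amplification, barcoding and sequencing. RNA level is the RNA-to-DNA read ratio normalized to a spiked-in non-cleaving sequence or to the leading sequences, then scaled and log-transformed. Scaling was ×100 with log10, the leading set comprised 25 sequences, and the cutoff was ≥100 DNA reads.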

hypoxanthine [2] = variants of: B1; test: normalized RNA/DNA level without ligand (relative to sTRSVctl = 100) (log10 (% of sTRSVctl)); ligand: hypoxanthine (xanthine aptamer); higher = less ribozyme self-cleavage, higher mRNA level; details: HEK293T, reporter: mCherry (pCS4076), ligand present: no
Summary of the method: as §1

Variant | normalized RNA/DNA level with ligand (log10) (hypoxanthine [1]) | normalized RNA/DNA level without ligand (log10) (hypoxanthine [2])
CUGCAC | 1.94 ± 0.057 | 1.869 ± 0.018
CUGCAU | 1.94 ± 0.043 | 1.8 ± 0.074
CUGCAA | 1.933 ± 0.0062 | 1.773 ± 0.015
CUGCUU | 1.962 ± 0.011 | 1.9272 ± 0.0008
CUGCUA | 1.95 ± 0.052 | 1.77 ± 0.043
CUGCUG | 1.92 ± 0.094 | 1.815 ± 0.0021
CUGCUC | 1.96 ± 0.063 | 2.01 ± 0.0072
AUGCGC | 1.93 ± 0.051 | 1.73 ± 0.031
AUGCGU | 1.94 ± 0.025 | 1.819 ± 0.016
CUGAAC | 1.9 ± 0.066 | 1.76 ± 0.019
CUGAAU | 1.93 ± 0.062 | 1.74 ± 0.062
CUGUGC | 1.907 ± 0.018 | 1.86 ± 0.043
CUGUGA | 1.976 ± 0.0082 | 1.82 ± 0.065
CUGUGU | 1.95 ± 0.047 | 1.898 ± 0.0077
GUUACA | 1.92 ± 0.031 | 1.8382 ± 0.0018
CUGGUC | 1.96 ± 0.026 | 1.93 ± 0.023
CUGGUA | 1.93 ± 0.022 | 1.773 ± 0.01
CUGGUU | 2.01 ± 0.024 | 1.858 ± 0.0054
CUGGUG | 1.94 ± 0.059 | 1.76 ± 0.022
GUUAGC | 1.91 ± 0.023 | 1.683 ± 0.0085
GUUAGU | 1.9 ± 0.1 | 1.786 ± 0.011
GUCUCA | 1.965 ± 0.019 | 1.943 ± 0.0073
GUCUCC | 1.99 ± 0.047 | 1.94 ± 0.084
GUUAUA | 1.881 ± 0.0041 | 1.83 ± 0.025

Variant | normalized RNA/DNA level with ligand (log10) (hypoxanthine [1]) | normalized RNA/DNA level without ligand (log10) (hypoxanthine [2])
GUUAUC | 1.96 ± 0.049 | 1.86 ± 0.037
GUCUGG | 1.878 ± 0.016 | 1.48 ± 0.0028
GUCUGC | 1.92 ± 0.038 | 1.707 ± 0.0074
GUCUGU | 1.948 ± 0.018 | 1.841 ± 0.015
GUCUGA | 1.954 ± 0.0094 | 1.79 ± 0.03
CUGACU | 1.99 ± 0.038 | 1.9 ± 0.072
CUGACG | 1.89 ± 0.057 | 1.86 ± 0.074
CUGUUG | 1.964 ± 0.0068 | 1.8708 ± 0.00036
CUGUUU | 2.02 ± 0.046 | 1.956 ± 0.006
CUGUUC | 1.97 ± 0.021 | 1.861 ± 0.0058
AUGAGC | 1.8938 ± 0.00087 | 1.57 ± 0.055
AUGAGU | 1.87 ± 0.026 | 1.44 ± 0.11
GUGACC | 1.931 ± 0.012 | 1.74 ± 0.019
GUGACA | 1.9 ± 0.04 | 1.78 ± 0.033
UUGCCC | 1.99 ± 0.025 | 1.997 ± 0.0042
UUGCCA | 1.95 ± 0.017 | 1.94 ± 0.028
UUGCCU | 2.007 ± 0.018 | 1.99 ± 0.057
GUGGCC | 1.98 ± 0.027 | 1.88 ± 0.023
GUGGCU | 1.96 ± 0.042 | 1.881 ± 0.0077
GUGGCA | 1.98 ± 0.02 | 1.83 ± 0.072
UUUAUC | 1.97 ± 0.03 | 1.99 ± 0.021
UUUAUG | 1.92 ± 0.027 | 1.772 ± 0.014
AUUAUC | 2.02 ± 0.021 | 1.97 ± 0.02
AUUAUG | 1.891 ± 0.0046 | 1.48 ± 0.043

Variant | normalized RNA/DNA level with ligand (log10) (hypoxanthine [1]) | normalized RNA/DNA level without ligand (log10) (hypoxanthine [2])
UUGAAC | 1.92 ± 0.052 | 1.855 ± 0.01
UUGAAU | 1.95 ± 0.03 | 1.8 ± 0.031
AUGGUU | 1.89 ± 0.034 | 1.763 ± 0.012
UUGGCA | 1.966 ± 0.0098 | 1.907 ± 0.018
UUGGCU | 1.98 ± 0.042 | 1.988 ± 0.013
UUGGCC | 1.97 ± 0.066 | 2.013 ± 0.0026
AUUAGU | 1.95 ± 0.028 | 1.712 ± 0.0075
AUCUUU | 1.99 ± 0.024 | 1.91 ± 0.046
AUCUUA | 1.916 ± 0.012 | 1.827 ± 0.011
AUCUUC | 2.02 ± 0.031 | 2.006 ± 0.0047
CUGCGU | 1.954 ± 0.013 | 1.93 ± 0.021
CUGCGG | 1.96 ± 0.1 | 1.902 ± 0.0065
CUGUCG | 1.98 ± 0.027 | 1.84 ± 0.032
CUGUCC | 2.01 ± 0.024 | 1.92 ± 0.053
CUGUCU | 2.03 ± 0.079 | 1.89 ± 0.077
AUGGCU | 1.89 ± 0.026 | 1.86 ± 0.031
AUGGCC | 1.959 ± 0.015 | 1.883 ± 0.014
AUGGCA | 1.92 ± 0.035 | 1.787 ± 0.017
GUGCGC | 1.9 ± 0.023 | 1.74 ± 0.098
GUGCGA | 1.918 ± 0.0038 | 1.58 ± 0.018
CUUAUG | 1.91 ± 0.039 | 1.91 ± 0.018
CUUAUC | 1.98 ± 0.02 | 1.987 ± 0.013
GUGCCA | 1.93 ± 0.021 | 1.81 ± 0.035
GUGCCC | 1.93 ± 0.027 | 1.82 ± 0.049

Variant | normalized RNA/DNA level with ligand (log10) (hypoxanthine [1]) | normalized RNA/DNA level without ligand (log10) (hypoxanthine [2])
GUGCCU | 1.98 ± 0.042 | 1.891 ± 0.0069
CUGGGU | 2 ± 0.069 | 1.881 ± 0.005
CUGGGA | 2.03 ± 0.061 | 1.857 ± 0.015
CUGGGC | 1.98 ± 0.047 | 1.902 ± 0.0037
GUGGAG | 1.79 ± 0.028 | 1.28 ± 0.1
GUGGAC | 1.889 ± 0.011 | 1.58 ± 0.068
GUGGGC | 1.81 ± 0.1 | 1.33 ± 0.11
GUGGUU | 1.96 ± 0.064 | 1.875 ± 0.017
GUGGUC | 1.96 ± 0.038 | 1.79 ± 0.054
GUGAAU | 1.9 ± 0.024 | 1.7 ± 0.052
GUGAAC | 1.9 ± 0.024 | 1.57 ± 0.046
GUGAAA | 1.895 ± 0.016 | 1.66 ± 0.027
CUCUCA | 1.96 ± 0.0068 | 1.91 ± 0.027
CUCUCU | 1.89 ± 0.034 | 1.904 ± 0.012
AUGCCU | 1.958 ± 0.0056 | 1.818 ± 0.0027
AUGCCC | 1.97 ± 0.062 | 1.87 ± 0.048
AUGCCG | 1.837 ± 0.01 | 1.49 ± 0.089
AUCUCG | 1.89 ± 0.024 | 1.59 ± 0.06
AUCUCU | 1.99 ± 0.075 | 1.937 ± 0.0021
AUCUCC | 1.97 ± 0.039 | 1.9 ± 0.058
AUGCUU | 1.93 ± 0.088 | 1.861 ± 0.018
AUGCUC | 2.008 ± 0.011 | 1.976 ± 0.013
AUGCUG | 1.898 ± 0.0024 | 1.61 ± 0.048
GUGAUA | 1.89 ± 0.073 | 1.75 ± 0.027

Variant | normalized RNA/DNA level with ligand (log10) (hypoxanthine [1]) | normalized RNA/DNA level without ligand (log10) (hypoxanthine [2])
GUGAUU | 1.92 ± 0.0091 | 1.847 ± 0.0028
GUGAUC | 1.93 ± 0.036 | 1.54 ± 0.13
UUCUCU | 1.99 ± 0.084 | 1.89 ± 0.051
UUCUCC | 1.97 ± 0.072 | 1.99 ± 0.082
UUCUCA | 1.98 ± 0.033 | 1.918 ± 0.013
UUGGAG | 1.95 ± 0.041 | 1.684 ± 0.0079
UUGGAC | 1.95 ± 0.02 | 1.92 ± 0.043
UUGGAA | 1.942 ± 0.0068 | 1.771 ± 0.0035
UUGGAU | 2.004 ± 0.0096 | 1.8482 ± 4.2e-06
UUGCUC | 2.061 ± 0.0057 | 1.9913 ± 0.0008
UUGCUA | 1.95 ± 0.045 | 1.897 ± 0.0028
UUGCUG | 2.009 ± 0.012 | 1.94 ± 0.028
CUGAGC | 1.947 ± 0.0077 | 1.79 ± 0.065
CUGAGU | 1.94 ± 0.073 | 1.839 ± 0.0049
CUUACA | 1.932 ± 0.011 | 1.83 ± 0.062
CUUACU | 1.96 ± 0.028 | 1.856 ± 0.0075
CUUACG | 1.96 ± 0.025 | 1.87 ± 0.086
UUGUGC | 2.02 ± 0.024 | 1.99 ± 0.047
UUGUGU | 1.97 ± 0.051 | 1.93 ± 0.043
UUGUGA | 1.985 ± 0.003 | 1.8 ± 0.062
